Reference: PMC5669352

Molecular target: native mapacalcine (Cliona vastifica) (UniProt P86916)
Experiment: MALDI-MS

stoichiometry N: 2
Substance: native mapacalcine (from UniProt P86916 1-89) (natural protein)
